Columns and labels:
Experiment in all cases: EMSA
[1] = biological target: POLγA Y951N (human, UniProt P54098 26-1239, Y951N)
[2] = biological target: POLγA WT (human, UniProt P54098 26-1239)
[3] = biological target: POLγA Y951N;POLγB (processivity subunit, B2) (human;human, UniProt P54098;Q9UHN1 26-1239;26-485, Y951N|)
[4] = biological target: POLγA WT;POLγB (processivity subunit, B2) (human;human, UniProt P54098;Q9UHN1 26-1239;26-485, |)

Measured: binding result

Chain of POLγA Y951N;POLγB (processivity subunit, B2) (P54098 26-1239 Y951N, chain 1 of 2): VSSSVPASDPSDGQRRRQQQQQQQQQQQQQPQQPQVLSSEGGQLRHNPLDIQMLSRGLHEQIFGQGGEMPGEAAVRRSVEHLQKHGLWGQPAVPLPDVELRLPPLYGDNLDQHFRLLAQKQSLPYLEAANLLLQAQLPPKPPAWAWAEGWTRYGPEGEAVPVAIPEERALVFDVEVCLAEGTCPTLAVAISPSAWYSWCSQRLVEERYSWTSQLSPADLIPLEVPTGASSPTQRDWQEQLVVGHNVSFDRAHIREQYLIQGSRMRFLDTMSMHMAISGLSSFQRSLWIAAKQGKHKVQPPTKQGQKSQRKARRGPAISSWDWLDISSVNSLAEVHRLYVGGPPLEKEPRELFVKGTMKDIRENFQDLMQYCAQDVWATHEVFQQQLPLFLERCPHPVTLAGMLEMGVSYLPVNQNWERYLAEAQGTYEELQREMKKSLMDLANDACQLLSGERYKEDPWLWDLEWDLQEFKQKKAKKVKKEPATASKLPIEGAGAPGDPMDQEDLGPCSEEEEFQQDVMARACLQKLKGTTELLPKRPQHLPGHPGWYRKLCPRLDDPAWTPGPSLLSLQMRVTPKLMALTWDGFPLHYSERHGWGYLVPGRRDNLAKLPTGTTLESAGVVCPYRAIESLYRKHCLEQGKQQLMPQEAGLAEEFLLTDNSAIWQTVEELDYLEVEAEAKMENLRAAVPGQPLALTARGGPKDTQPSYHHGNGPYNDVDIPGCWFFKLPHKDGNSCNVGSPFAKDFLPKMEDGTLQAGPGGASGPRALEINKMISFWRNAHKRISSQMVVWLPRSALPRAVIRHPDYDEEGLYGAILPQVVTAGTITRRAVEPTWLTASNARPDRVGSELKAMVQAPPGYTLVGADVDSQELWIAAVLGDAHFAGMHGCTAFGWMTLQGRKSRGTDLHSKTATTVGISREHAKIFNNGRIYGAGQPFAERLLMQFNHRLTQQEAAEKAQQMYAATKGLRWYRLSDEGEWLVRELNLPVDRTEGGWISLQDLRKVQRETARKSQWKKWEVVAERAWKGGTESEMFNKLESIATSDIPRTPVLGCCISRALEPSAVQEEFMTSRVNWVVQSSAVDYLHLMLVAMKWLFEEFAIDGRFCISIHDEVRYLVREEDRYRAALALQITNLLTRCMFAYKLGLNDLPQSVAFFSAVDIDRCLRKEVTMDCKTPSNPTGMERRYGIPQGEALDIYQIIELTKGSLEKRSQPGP
Chain of POLγA Y951N;POLγB (processivity subunit, B2) (Q9UHN1 26-485, chain 2 of 2): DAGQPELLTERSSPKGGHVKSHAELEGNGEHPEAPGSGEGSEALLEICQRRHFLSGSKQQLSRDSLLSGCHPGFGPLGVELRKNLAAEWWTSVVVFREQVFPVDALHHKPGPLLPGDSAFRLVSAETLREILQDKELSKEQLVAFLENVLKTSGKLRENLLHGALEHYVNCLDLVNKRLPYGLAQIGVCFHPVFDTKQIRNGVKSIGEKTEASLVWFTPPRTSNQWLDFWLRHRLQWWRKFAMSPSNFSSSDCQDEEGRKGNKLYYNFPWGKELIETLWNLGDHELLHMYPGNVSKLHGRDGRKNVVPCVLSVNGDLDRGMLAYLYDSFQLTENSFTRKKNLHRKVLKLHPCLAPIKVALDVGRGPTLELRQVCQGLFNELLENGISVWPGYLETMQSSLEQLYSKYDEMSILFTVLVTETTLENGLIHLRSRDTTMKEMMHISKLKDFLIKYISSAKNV
Chain of POLγA Y951N (P54098 26-1239 Y951N): as the sequence (P54098 26-1239 Y951N, chain 1 of 2) above
Chain of POLγA WT;POLγB (processivity subunit, B2) (P54098 26-1239, chain 1 of 2): as the sequence (P54098 26-1239 Y951N, chain 1 of 2) above, with N926Y counted along it
Chain of POLγA WT;POLγB (processivity subunit, B2) (Q9UHN1 26-485, chain 2 of 2): as the sequence (Q9UHN1 26-485, chain 2 of 2) above
Chain of POLγA WT (P54098 26-1239): as the sequence (P54098 26-1239 Y951N, chain 1 of 2) above, with N926Y counted along it

B1: 25/40 nt TET-ddC primer/template (EMSA) (dsDNA)
DNA 1: GCAGTGAATTTCTGCAGGTCGACTC
DNA 2: GCGGGTTGACCTTTGGAGTCGACCTGCAGAAATTCACTGC
modifications: 3'-ddC on both strands
binds: [1] | [2] | [3] | [4]
